Sequences and labels used below:
B1: Peroxisomal bifunctional enzyme (Homo sapiens), Q08426 (parent)
chain: MAEYTRLHNALALIRLRNPPVNAISTTLLRDIKEGLQKAVIDHTIKAIVICGAEGKFSAGADIRGFSAPRTFGLTLGHVVDEIQRNEKPVVAAIQGMAFGGGLELALGCHYRIAHAEAQVGLPEVTLGLLPGARGTQLLPRLTGVPAALDLITSGRRILADEALKLGILDKVVNSDPVEEAIRFAQRVSDQPLESRRLCNKPIQSLPNMDSIFSEALLKMRRQHPGCLAQEACVRAVQAAVQYPYEVGIKKEEELFLYLLQSGQARALQYAFFAERKANKWSTPSGASWKTASARPVSSVGVVGLGTMGRGIVISFARARIPVIAVDSDKNQLATANKMITSVLEKEASKMQQSGHPWSGPKPRLTSSVKELGGVDLVIEAVFEEMSLKKQVFAELSAVCKPEAFLCTNTSALDVDEIASSTDRPHLVIGTHFFSPAHVMKLLEVIPSQYSSPTTIATVMNLSKKIKKIGVVVGNCFGFVGNRMLNPYYNQAYFLLEEGSKPEEVDQVLEEFGFKMGPFRVSDLAGLDVGWKSRKGQGLTGPTLLPGTPARKRGNRRYCPIPDVLCELGRFGQKTGKGWYQYDKPLGRIHKPDPWLSKFLSRYRKTHHIEPRTISQDEILERCLYSLINEAFRILGEGIAASPEHIDVVYLHGYGWPRHKGGPMFYASTVGLPTVLEKLQKYYRQNPDIPQLEPSDYLKKLASQGNPPLKEWQSLAGSPSSKL
partner: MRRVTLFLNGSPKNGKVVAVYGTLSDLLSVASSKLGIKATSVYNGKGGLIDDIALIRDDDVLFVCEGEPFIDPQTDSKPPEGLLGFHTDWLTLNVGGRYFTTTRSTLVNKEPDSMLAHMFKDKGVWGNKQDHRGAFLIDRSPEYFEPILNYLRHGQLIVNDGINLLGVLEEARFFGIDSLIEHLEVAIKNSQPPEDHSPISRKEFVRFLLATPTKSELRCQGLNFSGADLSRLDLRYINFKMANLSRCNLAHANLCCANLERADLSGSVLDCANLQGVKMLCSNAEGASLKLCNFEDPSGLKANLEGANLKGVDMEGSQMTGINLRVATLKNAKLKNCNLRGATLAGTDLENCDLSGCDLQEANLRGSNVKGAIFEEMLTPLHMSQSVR
B2: 2'-5'-oligoadenylate synthase 1 (Homo sapiens), P00973 (parent)
chain: MMDLRNTPAKSLDKFIEDYLLPDTCFRMQINHAIDIICGFLKERCFRGSSYPVCVSKVVKGGSSGKGTTLRGRSDADLVVFLSPLTTFQDQLNRRGEFIQEIRRQLEACQRERAFSVKFEVQAPRWGNPRALSFVLSSLQLGEGVEFDVLPAFDALGQLTGGYKPNPQIYVKLIEECTDLQKEGEFSTCFTELQRDFLKQRPTKLKSLIRLVKHWYQNCKKKLGKLPPQYALELLTVYAWERGSMKTHFNTAQGFRTVLELVINYQQLCIYWTKYYDFKNPIIEKYLRRQLTKPRPVILDPADPTGNLGGGDPKGWRQLAQEAEAWLNYPCFKNWDGSPVSSWILLAESNSADDETDDPRRYQKYGYIGTHEYPHFSHRPSTLQAASTPQAEEDWTCTIL
partner: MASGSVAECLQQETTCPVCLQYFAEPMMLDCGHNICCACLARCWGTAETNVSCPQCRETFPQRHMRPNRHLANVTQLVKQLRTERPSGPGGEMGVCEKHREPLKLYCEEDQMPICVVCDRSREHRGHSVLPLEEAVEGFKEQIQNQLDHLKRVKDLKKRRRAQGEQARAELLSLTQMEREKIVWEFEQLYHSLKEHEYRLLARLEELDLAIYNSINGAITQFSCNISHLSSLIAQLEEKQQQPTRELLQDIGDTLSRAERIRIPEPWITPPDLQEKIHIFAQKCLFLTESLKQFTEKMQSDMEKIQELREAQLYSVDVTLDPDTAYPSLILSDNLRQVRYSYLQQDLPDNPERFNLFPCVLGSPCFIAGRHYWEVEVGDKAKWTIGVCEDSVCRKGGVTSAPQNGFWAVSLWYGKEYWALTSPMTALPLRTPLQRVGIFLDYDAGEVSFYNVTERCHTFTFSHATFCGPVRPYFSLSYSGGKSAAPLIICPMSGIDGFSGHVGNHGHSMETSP
B3: NIF3-like protein 1 (Homo sapiens), Q9GZT8 (parent)
chain: MLSSCVRPVPTTVRFVDSLICNSSRSFMDLKALLSSLNDFASLSFAESWDNVGLLVEPSPPHTVNTLFLTNDLTEEVMEEVLQKKADLILSYHPPIFRPMKRITWNTWKERLVIRALENRVGIYSPHTAYDAAPQGVNNWLAKGLGACTSRPIHPSKAPNYPTEGNHRVEFNVNYTQDLDKVMSAVKGIDGVSVTSFSARTGNEEQTRINLNCTQKALMQVVDFLSRNKQLYQKTEILSLEKPLLLHTGMGRLCTLDESVSLATMIDRIKRHLKLSHIRLALGVGRTLESQVKVVALCAGSGSSVLQGVEADLYLTGEMSHHDTLDAASQGINVILCEHSNTERGFLSDLRDMLDSHLENKINIILSETDRDPLQVV
partner: B2 partner
B4: Maspardin (Homo sapiens), Q9NZD8 (parent)
chain: MGEIKVSPDYNWFRGTVPLKKIIVDDDDSKIWSLYDAGPRSIRCPLIFLPPVSGTADVFFRQILALTGWGYRVIALQYPVYWDHLEFCDGFRKLLDHLQLDKVHLFGASLGGFLAQKFAEYTHKSPRVHSLILCNSFSDTSIFNQTWTANSFWLMPAFMLKKIVLGNFSSGPVDPMMADAIDFMVDRLESLGQSELASRLTLNCQNSYVEPHKIRDIPVTIMDVFDQSALSTEAKEEMYKLYPNARRAHLKTGGNFPYLCRSAEVNLYVQIHLLQFHGTKYAAIDPSMVSAEELEVQKGSLGISQEEQ
B5: WASH complex subunit 3 (Homo sapiens), Q9Y3C0 (parent)
chain: MDEDGLPLMGSGIDLTKVPAIQQKRTVAFLNQFVVHTVQFLNRFSTVCEEKLADLSLRIQQIETTLNILDAKLSSIPGLDDVTVEVSPLNVTSVTNGAHPEATSEQPQQNSTQDSGLQESEVSAENILTVAKDPRYARYLKMVQVGVPVMAIRNKMISEGLDPDLLERPDAPVPDGESEKTVEESSDSESSFSD

The source of these data is IntAct's records for PubMed 31515488.

Variants of B1 are the subject of the first experiment. The following applies: with kctd9_human KCTD9, Q7L273.
For the variant R483Q, the “effect of a mutation on the interaction” value is on record as “disrupting interaction strength”.
On to I646T, for which the “effect of a mutation on the interaction” value is given as “disrupting interaction strength”.
For the variant S703F, the “effect of a mutation on the interaction” value is given as “with no effect”.
Consider L715S, for which the “effect of a mutation on the interaction” value is given as “disrupting interaction strength”.

The variants in the next experiment derive from B2. The settings on record: with tri27_human TRIM27, P14373.
Regarding L327P, the “effect of a mutation on the interaction” value is “disrupting interaction strength”.

In a further experiment the parent is B3. The following applies: with tri27_human TRIM27, P14373.
Consider T324I, for which the “effect of a mutation on the interaction” value was “disrupting interaction strength”.

In another experiment the parent is B4. The settings on record: with cryaa_human CRYAA.
With H272D, the “effect of a mutation on the interaction” value is reported as “disrupting interaction strength”.
In the case of A180T, the “effect of a mutation on the interaction” value is “disrupting interaction strength”.

The next experiment covers variants of B4. The following applies: with traf2_human TRAF2, Q12933.
traf2_human TRAF2, Q12933, sequence (Q12933 whole entry): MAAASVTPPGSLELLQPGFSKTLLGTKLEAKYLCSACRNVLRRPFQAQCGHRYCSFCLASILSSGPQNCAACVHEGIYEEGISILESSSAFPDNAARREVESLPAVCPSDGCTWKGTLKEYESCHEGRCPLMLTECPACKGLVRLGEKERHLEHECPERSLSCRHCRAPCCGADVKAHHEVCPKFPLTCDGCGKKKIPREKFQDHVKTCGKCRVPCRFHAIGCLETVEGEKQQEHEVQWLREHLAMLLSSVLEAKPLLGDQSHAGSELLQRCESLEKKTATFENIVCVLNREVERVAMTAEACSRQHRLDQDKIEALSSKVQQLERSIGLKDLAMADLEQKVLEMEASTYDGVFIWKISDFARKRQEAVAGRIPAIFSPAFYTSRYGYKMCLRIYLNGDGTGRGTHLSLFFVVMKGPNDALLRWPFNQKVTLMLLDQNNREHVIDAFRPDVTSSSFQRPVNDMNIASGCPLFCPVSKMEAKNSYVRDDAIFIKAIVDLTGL
As to H272D, the “effect of a mutation on the interaction” value was “disrupting interaction strength”.
In the case of A180T, the “effect of a mutation on the interaction” value was “with no effect”.

The next experiment covers variants of B4. The following applies: with htf4_human TCF12, Q99081.
htf4_human TCF12, Q99081, sequence (Q99081 whole entry): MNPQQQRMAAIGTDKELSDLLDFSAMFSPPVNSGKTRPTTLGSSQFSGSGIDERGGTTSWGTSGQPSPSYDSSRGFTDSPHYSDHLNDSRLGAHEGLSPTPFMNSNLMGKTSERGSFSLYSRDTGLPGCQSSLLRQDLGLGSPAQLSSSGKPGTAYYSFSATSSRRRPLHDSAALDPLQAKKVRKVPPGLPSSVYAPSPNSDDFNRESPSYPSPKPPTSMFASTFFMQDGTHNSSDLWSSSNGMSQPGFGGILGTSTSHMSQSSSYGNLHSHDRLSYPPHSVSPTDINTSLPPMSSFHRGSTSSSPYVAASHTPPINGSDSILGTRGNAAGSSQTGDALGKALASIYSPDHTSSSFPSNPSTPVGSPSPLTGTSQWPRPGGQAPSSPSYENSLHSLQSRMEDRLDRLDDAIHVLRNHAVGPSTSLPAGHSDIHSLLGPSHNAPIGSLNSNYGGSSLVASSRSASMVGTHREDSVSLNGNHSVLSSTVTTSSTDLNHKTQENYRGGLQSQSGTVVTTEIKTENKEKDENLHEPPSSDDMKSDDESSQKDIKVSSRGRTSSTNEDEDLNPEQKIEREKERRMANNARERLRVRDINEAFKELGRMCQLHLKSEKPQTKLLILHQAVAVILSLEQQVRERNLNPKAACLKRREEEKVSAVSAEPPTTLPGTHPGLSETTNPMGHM
Regarding H272D, the “effect of a mutation on the interaction” value is on record as “disrupting interaction strength”.
Consider A180T, for which the “effect of a mutation on the interaction” value is listed as “with no effect”.

Variants of B4 are the subject of a further experiment. The following applies: with rtn4_human RTN4, Q9NQC3.
Turning to A180T, the “effect of a mutation on the interaction” value is listed as “with no effect”.

Variants of B4 are the subject of another experiment. The following applies: with reep6_human REEP6, Q96HR9.
reep6_human REEP6, Q96HR9, sequence (Q96HR9 whole entry): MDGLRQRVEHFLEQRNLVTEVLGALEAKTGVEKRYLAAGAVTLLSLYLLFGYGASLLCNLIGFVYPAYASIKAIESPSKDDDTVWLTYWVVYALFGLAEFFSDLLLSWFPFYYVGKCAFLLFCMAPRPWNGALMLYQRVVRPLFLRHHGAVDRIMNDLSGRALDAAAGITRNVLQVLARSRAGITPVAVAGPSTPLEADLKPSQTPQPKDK
As for A180T, the “effect of a mutation on the interaction” value is recorded as “with no effect”.

Variants of B4 are the subject of another experiment. The settings on record: with spre2_human SPRED2, Q7Z698.
spre2_human SPRED2, Q7Z698, sequence (Q7Z698 whole entry): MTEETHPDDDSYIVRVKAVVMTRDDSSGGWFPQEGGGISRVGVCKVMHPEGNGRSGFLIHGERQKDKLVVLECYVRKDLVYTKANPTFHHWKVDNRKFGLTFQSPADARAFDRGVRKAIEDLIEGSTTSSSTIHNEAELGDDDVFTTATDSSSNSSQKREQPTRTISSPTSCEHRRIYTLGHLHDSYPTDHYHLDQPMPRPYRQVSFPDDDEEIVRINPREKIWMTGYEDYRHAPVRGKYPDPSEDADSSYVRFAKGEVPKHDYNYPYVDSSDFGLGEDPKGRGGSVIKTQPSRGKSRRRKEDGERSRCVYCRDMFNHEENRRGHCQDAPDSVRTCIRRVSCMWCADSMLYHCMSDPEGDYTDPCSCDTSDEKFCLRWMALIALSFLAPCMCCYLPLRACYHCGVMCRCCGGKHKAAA
With A180T, the “effect of a mutation on the interaction” value is reported as “with no effect”.

The variants in the next experiment derive from B4. The settings on record: with atrap_human AGTRAP.
For A180T, the “effect of a mutation on the interaction” value is “with no effect”.

In the next experiment the parent is B4. The following applies: with akir2_human AKIRIN2, Q53H80.
akir2_human AKIRIN2, Q53H80, sequence (Q53H80 whole entry): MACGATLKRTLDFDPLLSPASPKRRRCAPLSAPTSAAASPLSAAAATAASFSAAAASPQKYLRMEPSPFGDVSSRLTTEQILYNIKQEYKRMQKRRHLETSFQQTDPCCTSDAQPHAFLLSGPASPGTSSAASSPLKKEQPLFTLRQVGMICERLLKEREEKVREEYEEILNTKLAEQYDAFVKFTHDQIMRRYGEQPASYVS
In the case of A180T, the “effect of a mutation on the interaction” value was “with no effect”.

Variants of B5 are the subject of the next experiment. The settings on record: with optn_human OPTN.
For the variant F44L, the “effect of a mutation on the interaction” value is “with no effect”.

In a further experiment the parent is B5. The settings on record: with ift20_human IFT20, Q8IY31.
ift20_human IFT20, Q8IY31, sequence (Q8IY31 whole entry): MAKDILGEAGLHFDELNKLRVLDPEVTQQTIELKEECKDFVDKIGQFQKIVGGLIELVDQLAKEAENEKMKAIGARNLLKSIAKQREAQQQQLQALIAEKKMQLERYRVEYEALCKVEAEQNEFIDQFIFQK
In the case of F44L, the “effect of a mutation on the interaction” value was “with no effect”.

Variants of B5 are the subject of the next experiment. The settings on record: with abi2_human ABI2, Q9NYB9.
abi2_human ABI2, Q9NYB9, sequence (Q9NYB9 whole entry): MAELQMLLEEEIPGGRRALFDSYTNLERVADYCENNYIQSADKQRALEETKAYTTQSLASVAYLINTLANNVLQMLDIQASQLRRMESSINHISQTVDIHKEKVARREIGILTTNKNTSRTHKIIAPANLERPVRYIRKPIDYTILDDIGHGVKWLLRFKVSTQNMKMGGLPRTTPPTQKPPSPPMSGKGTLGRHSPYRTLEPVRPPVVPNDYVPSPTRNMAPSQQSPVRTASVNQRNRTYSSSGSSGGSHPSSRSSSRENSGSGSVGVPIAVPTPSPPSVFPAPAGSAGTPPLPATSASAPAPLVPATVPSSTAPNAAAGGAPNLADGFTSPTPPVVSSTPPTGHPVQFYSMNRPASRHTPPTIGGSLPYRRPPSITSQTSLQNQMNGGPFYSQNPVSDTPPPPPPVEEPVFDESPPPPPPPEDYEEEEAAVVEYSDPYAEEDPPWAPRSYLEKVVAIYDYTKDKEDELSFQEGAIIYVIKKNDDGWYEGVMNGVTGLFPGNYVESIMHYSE
For F44L, the “effect of a mutation on the interaction” value is “disrupting interaction strength”.

In the next experiment the parent is B5. The settings on record: with ndc80_human NDC80, O14777.
For F44L, the “effect of a mutation on the interaction” value is listed as “with no effect”.

Variants of B5 are the subject of a further experiment. The following applies: with pcm1_human PCM1, Q15154.
pcm1_human PCM1, Q15154, sequence (Q15154 whole entry): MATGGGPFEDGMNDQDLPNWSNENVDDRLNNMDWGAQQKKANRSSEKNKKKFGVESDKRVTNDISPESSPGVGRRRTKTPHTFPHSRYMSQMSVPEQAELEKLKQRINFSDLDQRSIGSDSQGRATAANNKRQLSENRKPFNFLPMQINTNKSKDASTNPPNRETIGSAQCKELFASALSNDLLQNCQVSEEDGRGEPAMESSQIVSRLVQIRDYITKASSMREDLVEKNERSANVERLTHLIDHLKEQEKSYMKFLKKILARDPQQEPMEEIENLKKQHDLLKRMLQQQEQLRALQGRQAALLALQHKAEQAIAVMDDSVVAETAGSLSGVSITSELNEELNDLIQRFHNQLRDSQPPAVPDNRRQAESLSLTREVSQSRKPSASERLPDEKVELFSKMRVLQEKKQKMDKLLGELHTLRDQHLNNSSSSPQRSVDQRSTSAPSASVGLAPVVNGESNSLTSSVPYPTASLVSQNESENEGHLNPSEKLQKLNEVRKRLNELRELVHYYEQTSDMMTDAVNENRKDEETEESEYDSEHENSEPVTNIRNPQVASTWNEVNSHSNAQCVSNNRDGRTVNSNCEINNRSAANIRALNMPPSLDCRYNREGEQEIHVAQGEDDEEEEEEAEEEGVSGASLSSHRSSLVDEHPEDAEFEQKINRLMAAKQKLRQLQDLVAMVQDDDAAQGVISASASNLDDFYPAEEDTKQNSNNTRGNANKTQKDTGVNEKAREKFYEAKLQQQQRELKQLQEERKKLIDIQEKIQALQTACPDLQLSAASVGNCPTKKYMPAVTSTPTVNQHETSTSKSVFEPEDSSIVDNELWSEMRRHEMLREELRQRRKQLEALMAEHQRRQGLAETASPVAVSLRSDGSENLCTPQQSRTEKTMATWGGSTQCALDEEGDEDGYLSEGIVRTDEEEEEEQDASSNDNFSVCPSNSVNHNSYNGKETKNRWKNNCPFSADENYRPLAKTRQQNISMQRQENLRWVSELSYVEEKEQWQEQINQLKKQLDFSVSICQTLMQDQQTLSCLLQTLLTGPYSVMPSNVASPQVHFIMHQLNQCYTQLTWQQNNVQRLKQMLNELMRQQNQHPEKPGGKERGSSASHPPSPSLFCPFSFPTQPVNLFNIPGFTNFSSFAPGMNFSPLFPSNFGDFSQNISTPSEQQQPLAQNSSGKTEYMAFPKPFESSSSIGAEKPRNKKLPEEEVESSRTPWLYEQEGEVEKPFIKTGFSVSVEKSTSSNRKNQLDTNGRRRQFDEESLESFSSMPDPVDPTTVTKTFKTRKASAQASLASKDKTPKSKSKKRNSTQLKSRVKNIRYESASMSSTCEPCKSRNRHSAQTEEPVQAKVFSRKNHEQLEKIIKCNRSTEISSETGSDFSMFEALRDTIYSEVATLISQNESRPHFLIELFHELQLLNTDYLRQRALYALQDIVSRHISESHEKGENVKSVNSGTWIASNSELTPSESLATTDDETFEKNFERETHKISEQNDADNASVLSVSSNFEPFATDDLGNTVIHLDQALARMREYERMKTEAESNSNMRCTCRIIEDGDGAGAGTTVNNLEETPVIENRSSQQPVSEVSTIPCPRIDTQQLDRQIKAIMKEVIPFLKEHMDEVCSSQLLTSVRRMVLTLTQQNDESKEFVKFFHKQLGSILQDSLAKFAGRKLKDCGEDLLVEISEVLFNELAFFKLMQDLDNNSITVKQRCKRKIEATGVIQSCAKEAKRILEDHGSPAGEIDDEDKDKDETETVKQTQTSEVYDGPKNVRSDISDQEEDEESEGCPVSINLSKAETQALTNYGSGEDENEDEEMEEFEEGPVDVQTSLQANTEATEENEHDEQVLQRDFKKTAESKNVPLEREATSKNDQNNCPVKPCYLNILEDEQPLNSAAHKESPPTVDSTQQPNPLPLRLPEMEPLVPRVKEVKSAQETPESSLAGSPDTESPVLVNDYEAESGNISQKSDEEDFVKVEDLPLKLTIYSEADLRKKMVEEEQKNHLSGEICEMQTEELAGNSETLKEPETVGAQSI
Turning to F44L, the “effect of a mutation on the interaction” value is listed as “with no effect”.

The next experiment covers variants of B5. The settings on record: with mcrs1_human MCRS1, Q96EZ8.
For the variant F44L, the “effect of a mutation on the interaction” value is recorded as “with no effect”.

Variants of B5 are the subject of a further experiment. The settings on record: with txlna_human TXLNA.
In the case of F44L, the “effect of a mutation on the interaction” value was “with no effect”.
